Values joined by “and” are separate entries in the source; they are usually repeats but may differ in a detail not shown here. Equal entries are not always repeated.

For series [1], the target named is T1, Solute carrier family 22 member 1 (Rattus norvegicus, UniProt Q63089).
T1 sequence (Q63089 whole entry): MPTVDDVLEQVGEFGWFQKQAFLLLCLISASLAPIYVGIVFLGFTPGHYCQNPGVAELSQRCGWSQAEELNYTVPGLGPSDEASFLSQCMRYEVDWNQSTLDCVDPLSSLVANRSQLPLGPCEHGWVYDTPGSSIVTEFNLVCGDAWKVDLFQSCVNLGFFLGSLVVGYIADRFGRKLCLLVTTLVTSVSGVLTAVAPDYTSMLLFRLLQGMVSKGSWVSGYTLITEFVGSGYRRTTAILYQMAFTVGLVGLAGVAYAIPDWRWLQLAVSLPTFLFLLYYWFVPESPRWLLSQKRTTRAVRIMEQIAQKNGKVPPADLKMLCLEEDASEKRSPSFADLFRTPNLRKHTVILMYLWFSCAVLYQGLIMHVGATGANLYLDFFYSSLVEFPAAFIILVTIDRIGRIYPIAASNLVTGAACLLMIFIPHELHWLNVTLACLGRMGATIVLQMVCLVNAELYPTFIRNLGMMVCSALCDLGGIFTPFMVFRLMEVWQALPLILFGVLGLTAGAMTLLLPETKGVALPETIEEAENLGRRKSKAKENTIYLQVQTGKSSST
Description: (§1) TP_TRANSPORTER: uptake (electrogenesis) in Xenopus laevis oocytes. It counts as functional, cell-based. The note with it: oocyte.

Series [2] concerns the target T1, Solute carrier family 22 member 1. The series can be described thus: TP_TRANSPORTER: uptake in Xenopus laevis oocytes. In kind it is functional, cell-based. Particulars: oocyte.
Substrate in series [3]: CC(=O)OCC[N+](C)(C)C
Described as §1. In kind it is functional, cell-based, Oocyte.

Substrate in series [4]: NCCc1c[nH]c2ccc(O)cc12
Described as §1. In kind it is functional, cell-based, Oocyte.

Substrate in series [5]: NCCc1c[nH]cn1
The series can be described thus: cells, lysate or membranes named.

Substrate in series [6]: NCCc1ccc(O)c(O)c1
The series can be described thus: cells, lysate or membranes named.

With `NC[C@H](O)c1ccc(O)c(O)c1` [NOREPINEPHRINE], in series [1], the Activity result is “substrate [+]”.

As to `C=C[C@H]1C[N@@]2CC[C@H]1C[C@H]2[C@H](O)c1ccnc2ccc(OC)cc12` [QUININE], the Activity result in series [2] is “is not a substrate [-]”.

As to `C=C[C@H]1C[N@@]2CC[C@H]1C[C@@H]2[C@@H](O)c1ccnc2ccc(OC)cc12` [QUINIDINE], the Activity result in series [2] was “is not a substrate [-]”.

B1: Solute carrier family 22 member 1 (Rattus norvegicus) (protein)
chain: MPTVDDVLEQVGEFGWFQKQAFLLLCLISASLAPIYVGIVFLGFTPGHYCQNPGVAELSQRCGWSQAEELNYTVPGLGPSDEASFLSQCMRYEVDWNQSTLDCVDPLSSLVANRSQLPLGPCEHGWVYDTPGSSIVTEFNLVCGDAWKVDLFQSCVNLGFFLGSLVVGYIADRFGRKLCLLVTTLVTSVSGVLTAVAPDYTSMLLFRLLQGMVSKGSWVSGYTLITEFVGSGYRRTTAILYQMAFTVGLVGLAGVAYAIPDWRWLQLAVSLPTFLFLLYYWFVPESPRWLLSQKRTTRAVRIMEQIAQKNGKVPPADLKMLCLEEDASEKRSPSFADLFRTPNLRKHTVILMYLWFSCAVLYQGLIMHVGATGANLYLDFFYSSLVEFPAAFIILVTIDRIGRIYPIAASNLVTGAACLLMIFIPHELHWLNVTLACLGRMGATIVLQMVCLVNAELYPTFIRNLGMMVCSALCDLGGIFTPFMVFRLMEVWQALPLILFGVLGLTAGAMTLLLPETKGVALPETIEEAENLGRRKSKAKENTIYLQVQTGKSSST
For B1, the Km is 46.8 µM in series [3]; 37.6 µM in series [4]; 98.6 µM in series [5]; 19.4 µM and 51 µM in series [6].

By Km is commonly meant the substrate concentration at which the rate is half of its maximum.

Values taken from ChEMBL document CHEMBL2074147, “Monoamine neurotransmitter transport mediated by the polyspecific cation transporter rOCT1” (FEBS Lett, 1996).
